Experimental data reported in patent publication US20230105029A1 (CHIA TAI TIANQING PHARMACEUTICAL GROUP, published 2023).
Where two headings read alike, the source gives them in different places.

Key:
[1] = target: human IL4Rα expressed on HEK293T-IL4Rα-STAT6-STAT6LUC-LB2 cells (human, UniProt P24394 26-825); assay: cell-based or functional assay
[2] = target: T1, recombinant human IL4Rα-his protein (in house made) (human, UniProt P24394 26-232, limits assumed); assay: capture ELISA, biotin-IL4Rα-his
T1 construct: also called Human IL4Ra-his

[3] = target: T2, human IL4Rα expressed on 293F-IL4Rα cells (human, UniProt P24394 26-825); assay: flow cytometry, 293F-IL4Rα cells
T2 construct: whole, on cells; also called cell surface human IL4Rα
Method: Then, 2×10⁵ cells per well in 96 well-plates were incubated in 100 μL of the anti-IL4Rα antibodies or controls of various concentrations (starting at 80 nM with a 4-fold serial dilution) in FACS buffer for 40 minutes on ice. […] Following an incubation of 40 minutes at 4° C. in dark, cells were washed three times and resuspended in FACS buffer. Fluorescence was measured using a Becton Dickinson FACS Canto II-HTS equipment. Data was analyzed using Graphpad Prism software and EC₅₀ values were reported.

[4] = target: T3, marmoset monkey IL4Rα-his protein (marmoset monkey); assay: indirect ELISA, coated cal-IL4Rα-his
T3 construct: Custom made by Sino biological; no cleavage site stated; also called cal-IL4Rα-his; Cal-IL4Rα
T3 chain: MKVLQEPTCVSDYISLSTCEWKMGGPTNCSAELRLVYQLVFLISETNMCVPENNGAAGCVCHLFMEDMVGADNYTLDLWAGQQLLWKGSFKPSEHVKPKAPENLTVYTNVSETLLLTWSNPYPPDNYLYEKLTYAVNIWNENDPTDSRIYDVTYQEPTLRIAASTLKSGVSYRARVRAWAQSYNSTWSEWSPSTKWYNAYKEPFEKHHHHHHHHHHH

[5] = target: T4, cynomolgus monkey IL4Rα-his protein (cynomolgus monkey, UniProt A0A2K5V580 33-239); assay: indirect ELISA, coated cyno IL4Rα-his
T4 construct: Bought protein; also called Cynomolgus IL4Rα; Cyno-IL4Rα-his; not shown: his tag

[6] = target: T2, human IL4Rα expressed on 293F-IL4Rα …; assay: flow cytometry on 293F-IL4Rα cells
[7] = target: T3, marmoset monkey IL4Rα-his protein; assay: indirect ELISA on coated cal-IL4Rα-his
[8] = target: T1, recombinant human IL4Rα-his protein (in …); assay: SPR (Biacore), antibody captured, IL4Rα-his flowed
[9] = target: T1, recombinant human IL4Rα-his protein (in …); assay: SPR (Biacore), antibody captured, IL4Rα-his flowed; remark: listed apart in the source
[10] = target: T4, cynomolgus monkey IL4Rα-his protein; assay: indirect ELISA on coated cynomolgus IL4Rα-his
[11] = target: T2, human IL4Rα expressed on 293F-IL4Rα …; assay: flow cytometry, blocks biotin-IL4 binding to 293F-IL4Rα cells
Method: Then, 1×10⁵ cells per well in 96 well-plates were incubated in 100 μL of the anti-IL4Rα antibodies or controls of various concentrations (starting at 80 nM with a 4-fold serial dilution) in FACS buffer for 40 minutes on ice. The plates were washed twice with FACS buffer, and added and incubated for 40 minutes at 4° C. in dark with 100 μl/well 1.67 nM biotin-labeled human IL4 protein (Sino biological inc., Cat #11846-HNAE). The plates were washed twice with FACS buffer, and then added and incubated for 40 minutes at 4° C. in dark with 100 μl/well R-Phycoerythrin Streptavidin (1:500 dilution in FACS buffer, Jackson Immunoresearch, Cat #016-110-084). Cells were washed twice and resuspended in FACS buffer. Fluorescence was measured using a Becton Dickinson FACS Canto II-HTS equipment. Data was analyzed using Graphpad Prism software and IC₅₀ values were reported.

[12] = target: T1, recombinant human IL4Rα-his protein (in …); assay: competitive ELISA, blocks biotin-IL4 binding to coated IL4Rα-his
Method: Serially diluted anti-IL4Rα antibodies or the controls (starting at 80 nM with a 4-fold serial dilution) in 2.5% w/v non-fatty milk in PBST, 100 μl per well, were added to the IL4Rα bound plates, and incubated with the human IL4Rα-his proteins at 37° C. for 40 minutes. Plates were washed 4 times using wash buffer, and then added and incubated for 40 minutes at 37° C. with 100 μl/well of 0.56 nM biotin-labeled human IL4 protein (Sino biological inc., Cat #11846-HNAE). Plates were washed again using wash buffer. Thereafter, the plates were added with 100 μl/well of streptavidin conjugated HRP (1:10000 dilution in PBST buffer, Jackson Immunoresearch, Cat #016-030-084) and incubated for 40 minutes at 37° C. Plates were washed again using wash buffer. Finally, TMB was added and the reaction was stopped using 1M H₂SO₄, and the absorbance was read at 450 nm. Data was analyzed using Graphpad Prism software and IC₅₀ values were reported.

[13] = target: T2, human IL4Rα expressed on 293F-IL4Rα …; assay: flow cytometry on 293F-IL4Rα cells, blocked ligand biotin human IL4
[14] = target: T1, recombinant human IL4Rα-his protein (in …); assay: competitive ELISA, blocks biotin-IL4Rα-his binding to coated Benchmark (competitor)
Method: The ability of the anti-IL4Rα antibodies of the disclosure to block benchmark-human IL4Rα binding was measured in a competitive ELISA assay. Briefly, the benchmark was coated on 96-well micro plates at 2 μg/mL in PBS, 100 μl per well, and incubated overnight at 4° C. The next day, plates were washed with wash buffer (PBS+0.05% w/v Tween-20, PBST), and blocked with 5% w/v non-fatty milk in PBST for 2 hours at 37° C. tiring plate blocking, the anti-IL4Rα antibodies of the disclosure or controls were diluted with biotin labeled human IL4Rα-his proteins (prepared in-house with SEQ ID NO: 57, 0.55 nM in 2.5% w/v non-fatty milk in PBST), starting at 100 nM with a 4-fold serial dilution, and incubated at 25° C. for 40 minutes. After plate washing, the antibody/IL4Rα-his mixtures were added to benchmark coated plates, 100 μl per well. After incubation at 37° C. for 40 minutes, plates were washed using wash buffer. Then the plates were added and incubated with 100 μl/well streptavidin conjugated HRP for 40 minutes at 37° C. to detect biotin-labeled human IL4Rα-his bound to plates. Plates were washed again using wash buffer. Finally, TMB was added and the reaction was stopped using 1M H₂SO₄, and the absorbance was read at 450 nm. Data was analyzed using Graphpad Prism software and IC₅₀ values were reported.

[15] = target: T1, recombinant human IL4Rα-his protein (in …); assay: competitive ELISA: coated human IL4Rα-his, blocked ligand biotin human IL4
[16] = target: T1, recombinant human IL4Rα-his protein (in …); assay: capture ELISA: antibody captured on anti-IgG Fc plate, biotin human IL4Rα-his detected
[17] = target: T1, recombinant human IL4Rα-his protein (in …); assay: competitive ELISA: antibody mixed with biotin human IL4Rα-his, competitor plate-coated Benchmark

B1: huC2C1A1A1-V14 (antibody, human IgG4 S228P, kappa, V domains shown)
VH: EVQLVESGGGLVQPGGSLRLSCAASGFTFSTYGMSWVRQAPGKGLVWVATINSNGGSTSYPDSVKGRFTISRDNAKNTLYLQMNSLRAEDTAVYYCARFFRFRNAMDYWGQGTLVTVSS
VL: DIQMTQSPSSLSASVGQRVTITCRTSENIYSYLAWYQQKQGKPPRFLIYNAKTLAEGVPSRFSGSGSGTEFTLTITSLQAEDFGVYYCQHYYGPPTWTFGPGTKLEIKR
notes: Humanized, human IgG4/kappa
With B1 the “Inhibition on IL4 induced STAT6 phosphorylation (IC50, nM)” value [1] was 0.64 nM, the “Inhibition on IL13 induced STAT6 phosphorylation (IC50, nM)” value [1] was 0.73 nM and the EC50 [2] was 0.06 nM. For the same binder, the EC50 [3] was 0.39 nM, the EC50 [4] was 0.55 nM and the EC50 [5] was 0.68 nM. For the same binder, the EC50 [6] was 0.39 nM, the EC50 [7] was 0.555 nM and the Dissociation % [8] was 0.8%. For the same binder, the “End (RU)” value [8] was 50.5 RU, the Kd [8] was under 0.0654 nM and the “Start (RU)” value [8] was 50.1 RU. The koff [8] was under 1e-05 s⁻¹, the kon [8] was 153000 M⁻¹ s⁻¹ and the Kd [9] was 0.642 nM. The EC50 [10] was 0.677 nM, the IC50 [11] was 0.58 nM and the IC50 [12] was 2.17 nM. The IC50 [13] was 0.578 nM, the IC50 [14] was 0.17 nM and the IC50 [15] was 2.17 nM. For the same binder, the EC50 [16] was 0.0616 nM and the IC50 [17] was 0.171 nM.

B2: huC2C1A1A1-V15 (antibody, human IgG4, V domains shown)
VH: B1 VH
VL: DIQMTQSPSSLSASVGDRVTITCRTSENIYSYLAWYQQKPGKAPKFLVYNAKTLAEGVPSRFSGSGSGTDFTLTISSLQPEDFATYYCQHYYGPPTWTFGQGTKVEIKR
notes: Humanized, human IgG4/kappa
B2 was tested, and the “Inhibition on IL4 induced STAT6 phosphorylation (IC50, nM)” value [1] was 0.61 nM, the “Inhibition on IL13 induced STAT6 phosphorylation (IC50, nM)” value [1] was 0.6 nM and the EC50 [2] was 0.05 nM. It also gave an EC50 [3] of 0.31 nM, an EC50 [4] of 0.41 nM and an EC50 [5] of 0.52 nM. It also gave an EC50 [6] of 0.311 nM, an EC50 [7] of 0.412 nM and a Dissociation % [8] of 0.29%. The “End (RU)” value [8] was 69.2 RU, the Kd [8] was under 0.0435 nM and the “Start (RU)” value [8] was 69 RU. For the same binder, the koff [8] was under 1e-05 s⁻¹, the kon [8] was 230000 M⁻¹ s⁻¹ and the Kd [9] was 0.447 nM. The EC50 [10] was 0.517 nM, the IC50 [11] was 0.5 nM and the IC50 [12] was 2.03 nM. The IC50 [13] was 0.502 nM, the IC50 [14] was 0.16 nM and the IC50 [15] was 2.03 nM. It also gave an EC50 [16] of 0.0474 nM and an IC50 [17] of 0.159 nM.
